Values quoted from earlier work in paper PMC8758526.

Legend:
[1] = biological target: TREM-1 (Mus musculus) (UniProt Q9JKE2)
[2] = biological target: TLR4 (Mus musculus) (UniProt Q9QUK6)
Chain of UniProt Q9QUK6 (Q9QUK6 26-835): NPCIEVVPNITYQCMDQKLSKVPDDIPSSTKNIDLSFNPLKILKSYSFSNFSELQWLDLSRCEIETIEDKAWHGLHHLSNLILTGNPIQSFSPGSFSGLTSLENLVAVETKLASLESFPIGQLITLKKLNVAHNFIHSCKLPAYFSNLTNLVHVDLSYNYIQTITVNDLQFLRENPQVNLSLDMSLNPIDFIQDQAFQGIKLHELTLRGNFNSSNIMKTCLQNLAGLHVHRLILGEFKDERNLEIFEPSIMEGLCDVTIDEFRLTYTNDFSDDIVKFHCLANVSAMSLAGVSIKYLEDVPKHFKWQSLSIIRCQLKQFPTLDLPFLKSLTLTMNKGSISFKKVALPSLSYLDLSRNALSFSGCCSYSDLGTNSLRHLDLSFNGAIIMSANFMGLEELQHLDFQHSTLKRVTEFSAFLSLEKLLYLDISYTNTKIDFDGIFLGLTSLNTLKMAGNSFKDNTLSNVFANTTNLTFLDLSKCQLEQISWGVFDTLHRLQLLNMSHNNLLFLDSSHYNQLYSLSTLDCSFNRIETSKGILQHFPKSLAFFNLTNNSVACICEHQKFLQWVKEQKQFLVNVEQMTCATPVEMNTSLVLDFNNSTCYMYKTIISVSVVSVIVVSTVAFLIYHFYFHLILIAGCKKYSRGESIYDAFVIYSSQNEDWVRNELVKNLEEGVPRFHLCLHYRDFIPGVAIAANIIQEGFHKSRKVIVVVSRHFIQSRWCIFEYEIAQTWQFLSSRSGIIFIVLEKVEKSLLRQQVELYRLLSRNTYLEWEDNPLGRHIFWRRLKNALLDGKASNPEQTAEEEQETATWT

Chain of UniProt Q9JKE2 (Q9JKE2 21-230): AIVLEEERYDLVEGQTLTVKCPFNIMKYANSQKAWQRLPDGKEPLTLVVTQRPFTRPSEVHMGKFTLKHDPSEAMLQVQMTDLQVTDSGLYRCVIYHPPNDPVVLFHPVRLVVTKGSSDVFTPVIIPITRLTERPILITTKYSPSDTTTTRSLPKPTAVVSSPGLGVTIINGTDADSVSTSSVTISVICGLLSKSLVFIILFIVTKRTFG

eCIRP (from UniProt P60824)
Kd [1]: 117 nM | Kd [2]: 617 nM
